Test results taken from PMC9328939, “A Randomized Double‐Blind Placebo‐Controlled First‐In‐Human Phase 1 Trial of TransCon PTH in Healthy Adults” (Journal of Bone and Mineral Research, 2020).
Where “and” joins values, the source holds several entries; their conditions need not be identical. Identical values can stand only once.

How the values were obtained:
[1] = tested on: healthy adults; assay: Safety and tolerability: adverse events in SAD and MAD cohorts
Method: (§1) Subjects attended a screening visit; those who met eligibility criteria were randomly assigned to a SAD or MAD cohort (n = 10/cohort; eight active and two placebo) and received a single or multiple dose(s) of TransCon PTH, respectively, via a syringe and 31G 8‐mm needle s.c. to the abdomen. […] Multiple TransCon PTH doses administered daily for 10 days ranged from 3.5 to 24 μg PTH(1‐34)/day. Throughout drug administration and for 4 days following the final dose, subjects remained housed for laboratory tests and safety monitoring.
(§2) At screening, demographic information, medical history, and concomitant medications, vital signs with height and weight, hematology, blood chemistry (including sCa, sP, and sMg), intact endogenous PTH(1‐84), 1,25‐dihydroxyvitamin D, and urine samples were collected. In addition, a limited physical examination and electrocardiogram (ECG) were performed.
(§3) Via regular vital sign checks, physical examinations, and safety laboratory tests, subjects were also monitored for adverse events (AEs) throughout the trial, including injection site reactions (erythema, ecchymosis, edema, pruritus, and pain).

[2] = tested on: healthy adults; conditions: in vivo
Method: as §1, §2, §3

[3] = tested on: healthy adults; assay: Pharmacodynamics: 1,25-dihydroxyvitamin D; type: in vivo, human; conditions: healthy subjects; data not shown
[4] = tested on: anti-PTH binding antibodies; assay: Anti-PTH binding antibodies, electrochemiluminescence bridging assay; type: in vivo, human; conditions: MAD cohorts, serum predose and day 14; screening and confirmatory assay
Method: Twice‐daily 12‐hour urine samples (including calcium, phosphorus, magnesium, and creatinine) were also collected. In MAD cohorts, serum samples collected from TransCon PTH‐treated and placebo‐treated subjects predose and postdose on day 14 were analyzed for anti‐PTH binding antibodies by BioAgilytix (Durham, NC, USA) using an electrochemiluminescence bridging assay. Samples were analyzed using a multitiered approach consisting of a screening assay and a confirmatory assay.

[5] = tested on: healthy adults; assay: Pharmacodynamics: suppression of intact endogenous PTH(1-84); type: in vivo, human
Method: The PD endpoints included albumin‐adjusted sCa, fractional excretion of calcium, sP, renal tubular maximum reabsorption of phosphate/glomerular filtration rate (TMP/GFR), intact endogenous PTH(1‐84), osteoblastic bone formation markers (serum bone‐specific alkaline phosphatase [BSAP] and P1NP), osteoclastic bone resorption markers (urine NTx and serum CTx), sMg, and 1,25‐dihydroxyvitamin D. PK samples were collected predose and at regular intervals postdose through 96 hours for the SAD cohorts and through day14 for the MAD cohorts.

[6] = MAD, Total of all TransCon PTH doses (3.5 to 24 μg/day), n = 50, number of subjects (%)
[7] = MAD, Total of all TransCon PTH doses, n = 50, at least possibly related, number of subjects (%)
[8] = SAD cohorts administered TransCon PTH (n = 56)
[9] = SAD, Total of all TransCon PTH doses (3.5 to 124 μg), n = 56, number of subjects (%)
[10] = SAD, Total of all TransCon PTH doses, n = 56, at least possibly related, number of subjects (%)
[11] = SAD, single s.c. 3.5 μg, n = 8, number of subjects (% of cohort)
[12] = SAD, single s.c. 3.5 μg, n = 8, vasodilatory AEs at least possibly related to study drug, number of subjects (%)
[13] = SAD, single s.c. 12 μg, n = 8, at least possibly related, number of subjects (%)
[14] = SAD, single s.c. 12 μg, n = 8, number of subjects (% of cohort)
[15] = SAD, single s.c. 32 μg, n = 8, at least possibly related, number of subjects (%)
[16] = SAD, single s.c. 32 μg, n = 8, number of subjects (% of cohort)
[17] = SAD, single s.c. 48 μg, n = 8, at least possibly related, number of subjects (%)
[18] = SAD, single s.c. 48 μg, n = 8, number of subjects (% of cohort)
[19] = SAD, single s.c. 72 μg, n = 8, at least possibly related, number of subjects (%)
[20] = SAD, single s.c. 72 μg, n = 8, number of subjects (% of cohort)
[21] = SAD, single s.c. 100 μg, n = 8, at least possibly related, number of subjects (%)
[22] = SAD, single s.c. 100 μg, n = 8, number of subjects (% of cohort)
[23] = SAD, single s.c. 124 μg, n = 8, at least possibly related, number of subjects (%)
[24] = SAD, single s.c. 124 μg, n = 8, number of subjects (% of cohort)

Which “Any AE (%)” value [1, 6] does the source give for “TransCon PTH: long-acting, essentially inactive prodrug: PTH(1-34) transiently bound to an inert 40 kDa mPEG carrier via a proprietary autocleaving linker” here?
The value was 66% and 33 (66.0) %.

What about the “Any SAE (%)” value [1, 6] of the same substance?
The value was 1 (2.0) %.

And the “Any drug-related AE (%)” value [1, 6]?
Its value is 16 (32.0) %.

And the “Any moderate or severe AE (%)” value [1, 6]?
The value was 14 (28.0) %.

And the “Dizziness, light-headedness (including postural/orthostatic dizziness, syncope, presyncope) (%)” value [1, 7]?
Its value is 5 (10.0) %.

And the “Tachycardia/palpitations (%)” value [1, 7]?
Its value is 5 (10.0) %.

What about the “maximum tolerable dose (MTD)” value ([1]; MAD, healthy volunteers, daily s.c. x 10 days) of the same substance?
Its value is 20 μg PTH(1-34)/day.

And the “discontinuation of the trial due to an AE” value ([1]; SAD and MAD cohorts)?
The value was “No subjects”.

And the “drug-related SAEs or severe AEs” value ([1]; SAD and MAD cohorts)?
The value was “no drug‐related SAEs or severe AEs”.

And the “physical examination, ECG, standard safety laboratory tests” value ([1]; SAD and MAD cohorts)?
The value was “no safety concerns were detected”.

And the tolerability ([1]; SAD and MAD cohorts, s.c.)?
The tolerability was “generally well tolerated”.

And the “treatment-emergent AE: dizziness” value [1, 8]?
Its value is 10.7%.

And the “treatment-emergent AE: headache” value [1, 8]?
The value was 7.1%.

What about the “treatment-emergent AE: postural dizziness” value [1, 8] of the same substance?
Its value is 5.4%.

What about the “maximum tolerable dose (MTD)” value ([1]; SAD cohorts, up to the top dose of 124 μg PTH(1-34)) of the same substance?
The value was “No MTD was observed”.

What about the “Any AE (%)” value [1, 9] of the same substance?
The value was 41.1% and 23 (41.1) %.

And the “Any SAE (%)” value [1, 9]?
Its value is 1 (1.8) %.

And the “Any drug-related AE (%)” value [1, 9]?
The value was 14 (25.0) %.

And the “Any moderate or severe AE (%)” value [1, 9]?
The value was 6 (10.7) %.

What about the “Dizziness, light-headedness (including postural/orthostatic dizziness, syncope, presyncope) (%)” value [1, 10] of the same substance?
Its value is 4 (7.1) %.

And the “Tachycardia/palpitations (%)” value [1, 10]?
Its value is 0 (0.0) %.

And the “Any AE (%)” value [1, 11]?
Its value is 1 (12.5) %.

And the “Any SAE (%)” value [1, 11]?
Its value is 0 (0) %.

And the “Any drug-related AE (%)” value [1, 11]?
The value was 1 (12.5) %.

And the “Any moderate or severe AE (%)” value [1, 11]?
Its value is 0 (0) %.

And the “Dizziness, light-headedness (including postural/orthostatic dizziness, syncope, presyncope) (%)” value [1, 12]?
The value was 0 (0.0) %.

What about the “Tachycardia/palpitations (%)” value [1, 12] of the same substance?
The value was 0 (0.0) %.

What about the “Dizziness, light-headedness (including postural/orthostatic dizziness, syncope, presyncope) (%)” value [1, 13] of the same substance?
The value was 0 (0.0) %.

What about the “Tachycardia/palpitations (%)” value [1, 13] of the same substance?
Its value is 0 (0.0) %.

What about the “Any AE (%)” value [1, 14] of the same substance?
The value was 3 (37.5) %.

What about the “Any SAE (%)” value [1, 14] of the same substance?
The value was 1 (12.5) %.

What about the “Any drug-related AE (%)” value [1, 14] of the same substance?
The value was 1 (12.5) %.

And the “Any moderate or severe AE (%)” value [1, 14]?
The value was 1 (12.5) %.

And the “Dizziness, light-headedness (including postural/orthostatic dizziness, syncope, presyncope) (%)” value [1, 15]?
Its value is 1 (12.5) %.

What about the “Tachycardia/palpitations (%)” value [1, 15] of the same substance?
Its value is 0 (0.0) %.

And the “Any AE (%)” value [1, 16]?
The value was 3 (37.5) %.

And the “Any SAE (%)” value [1, 16]?
The value was 0 (0) %.

And the “Any drug-related AE (%)” value [1, 16]?
The value was 2 (25.0) %.

What about the “Any moderate or severe AE (%)” value [1, 16] of the same substance?
Its value is 0 (0) %.

And the “Dizziness, light-headedness (including postural/orthostatic dizziness, syncope, presyncope) (%)” value [1, 17]?
Its value is 0 (0.0) %.

What about the “Tachycardia/palpitations (%)” value [1, 17] of the same substance?
The value was 0 (0.0) %.

And the “Any AE (%)” value [1, 18]?
The value was 6 (75.0) %.

What about the “Any SAE (%)” value [1, 18] of the same substance?
Its value is 0 (0) %.

What about the “Any drug-related AE (%)” value [1, 18] of the same substance?
The value was 5 (62.5) %.

What about the “Any moderate or severe AE (%)” value [1, 18] of the same substance?
The value was 2 (25.0) %.

And the “Dizziness, light-headedness (including postural/orthostatic dizziness, syncope, presyncope) (%)” value [1, 19]?
The value was 0 (0.0) %.

And the “Tachycardia/palpitations (%)” value [1, 19]?
The value was 0 (0.0) %.

And the “Any AE (%)” value [1, 20]?
Its value is 2 (25.0) %.

What about the “Any SAE (%)” value [1, 20] of the same substance?
The value was 0 (0) %.

And the “Any drug-related AE (%)” value [1, 20]?
Its value is 0 (0.0) %.

And the “Any moderate or severe AE (%)” value [1, 20]?
The value was 1 (12.5) %.

What about the “Dizziness, light-headedness (including postural/orthostatic dizziness, syncope, presyncope) (%)” value [1, 21] of the same substance?
Its value is 2 (25.0) %.

What about the “Tachycardia/palpitations (%)” value [1, 21] of the same substance?
Its value is 0 (0.0) %.

And the “Any AE (%)” value [1, 22]?
Its value is 4 (50.0) %.

And the “Any SAE (%)” value [1, 22]?
The value was 0 (0) %.

And the “Any drug-related AE (%)” value [1, 22]?
The value was 3 (37.5) %.

And the “Any moderate or severe AE (%)” value [1, 22]?
Its value is 1 (12.5) %.

What about the “Dizziness, light-headedness (including postural/orthostatic dizziness, syncope, presyncope) (%)” value [1, 23] of the same substance?
The value was 1 (12.5) %.

And the “Tachycardia/palpitations (%)” value [1, 23]?
The value was 0 (0.0) %.

What about the “Any AE (%)” value [1, 24] of the same substance?
The value was 4 (50.0) %.

What about the “Any SAE (%)” value [1, 24] of the same substance?
The value was 0 (0) %.

What about the “Any drug-related AE (%)” value [1, 24] of the same substance?
Its value is 2 (25.0) %.

What about the “Any moderate or severe AE (%)” value [1, 24] of the same substance?
The value was 1 (12.5) %.

What about the “treatment-emergent AE: upper respiratory tract infections” value [2] of the same substance?
Its value is 6%.

And the “1,25-dihydroxyvitamin D levels” value [3]?
Its value is “did not change significantly”.

What about the anti-PTH antibodies [4] of the same substance?
Its anti-PTH antibodies is “No anti‐PTH antibodies were detected”.

And the “intact endogenous PTH(1-84)” value ([5]; MAD cohorts, daily doses x 10 days)?
The value was “dose‐dependent suppression”.

And the “intact endogenous PTH(1-84)” value ([5]; SAD cohorts, data not shown)?
The value was “dose‐dependent suppression”.
